From article PMC8887125, “RBBP6 activates the pre-mRNA 3′ end processing machinery in humans” (Genes & Development, 2022)
Substitutions are numbered along the chain they refer to.

Legend:
CPSF73 = target: T1, CPSF73 (Homo sapiens, UniProt Q9UKF6); assay: in vitro SV40 pre-mRNA cleavage assay with purified proteins, dose response by denaturing gel; assay type: biochemical
T1 construct: gene CPSF3; CPSF73 within the purified recombinant seven-subunit CPSF complex (mPSF + mCF); with CPSF subunits (CPSF100, symplekin, CPSF160, WDR33, CPSF30, hFip1) with CStF, CFIIm and RBBP6 (1-335)

[1] = target: T2, mammalian cleavage factor (mCF), wild type: CPSF73, CPSF100 and symplekin (human, UniProt Q9UKF6 1-684; Q9P2I0 1-782; Q92797 1-1274); assay: SEC; 2.5 µM CPSF, mCF or mCF_(symplekin ΔNTD) incubated with 10 µM SSU72 for 30 min on ice; Superose 6 Increase 3.2/300; HEPES-NaOH pH 8.0, 150 mM NaCl, 0.5 mM TCEP; peak fractions on SDS-PAGE; conditions: both partners purified
T2 construct: CPSF73, human; synthetic gene for the full-length protein; CPSF100, human; symplekin, human; full coding region; also called mCFWT; source: Sf9 insect cells (baculovirus, pBig1), purified (Strep-Tactin, Resource Q, Superose 6); not shown: TEV site-StrepII (SII), C-terminal, kept; copies: + +
T2 sequence (Q9UKF6 whole entry, chain 1 of 3): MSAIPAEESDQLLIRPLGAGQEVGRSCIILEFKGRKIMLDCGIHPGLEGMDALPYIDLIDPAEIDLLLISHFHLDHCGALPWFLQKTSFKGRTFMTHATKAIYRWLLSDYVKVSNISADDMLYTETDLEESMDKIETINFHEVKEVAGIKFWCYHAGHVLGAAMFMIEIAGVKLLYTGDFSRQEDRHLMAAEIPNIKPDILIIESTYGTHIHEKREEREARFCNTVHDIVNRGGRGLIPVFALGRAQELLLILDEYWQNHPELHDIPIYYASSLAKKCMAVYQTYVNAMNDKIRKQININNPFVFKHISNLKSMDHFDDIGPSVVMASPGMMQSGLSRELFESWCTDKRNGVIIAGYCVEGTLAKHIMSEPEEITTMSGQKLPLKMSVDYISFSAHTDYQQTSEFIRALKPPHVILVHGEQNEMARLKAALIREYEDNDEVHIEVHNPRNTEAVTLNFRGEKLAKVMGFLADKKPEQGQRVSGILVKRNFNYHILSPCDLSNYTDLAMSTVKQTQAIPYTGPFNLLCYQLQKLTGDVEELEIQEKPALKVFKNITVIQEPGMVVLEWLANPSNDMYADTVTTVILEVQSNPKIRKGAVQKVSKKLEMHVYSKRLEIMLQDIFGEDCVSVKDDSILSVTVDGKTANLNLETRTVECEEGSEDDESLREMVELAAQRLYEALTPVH
T2 sequence (Q9P2I0 whole entry, chain 2 of 3): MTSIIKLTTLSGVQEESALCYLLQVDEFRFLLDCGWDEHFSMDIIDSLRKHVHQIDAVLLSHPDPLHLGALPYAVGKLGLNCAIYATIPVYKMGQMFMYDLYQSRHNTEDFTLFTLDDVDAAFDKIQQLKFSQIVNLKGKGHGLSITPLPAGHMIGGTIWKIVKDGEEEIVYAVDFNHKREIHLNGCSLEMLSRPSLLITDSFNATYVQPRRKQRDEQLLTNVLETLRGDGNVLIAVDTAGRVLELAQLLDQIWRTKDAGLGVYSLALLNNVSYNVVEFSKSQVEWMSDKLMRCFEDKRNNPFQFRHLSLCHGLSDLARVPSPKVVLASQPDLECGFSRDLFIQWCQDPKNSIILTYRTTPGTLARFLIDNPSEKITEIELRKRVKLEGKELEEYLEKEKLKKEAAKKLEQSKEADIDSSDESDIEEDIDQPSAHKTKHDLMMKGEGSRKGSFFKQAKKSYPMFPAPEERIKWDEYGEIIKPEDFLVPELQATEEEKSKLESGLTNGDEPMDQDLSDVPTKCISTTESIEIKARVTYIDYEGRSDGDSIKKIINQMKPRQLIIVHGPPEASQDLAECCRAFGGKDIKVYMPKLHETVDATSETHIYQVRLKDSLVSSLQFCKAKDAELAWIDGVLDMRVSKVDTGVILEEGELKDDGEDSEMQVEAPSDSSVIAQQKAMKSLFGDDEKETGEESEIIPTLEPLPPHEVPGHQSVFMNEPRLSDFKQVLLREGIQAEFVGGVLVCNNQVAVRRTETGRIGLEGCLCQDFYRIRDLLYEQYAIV
T2 sequence (Q92797 whole entry, chain 3 of 3): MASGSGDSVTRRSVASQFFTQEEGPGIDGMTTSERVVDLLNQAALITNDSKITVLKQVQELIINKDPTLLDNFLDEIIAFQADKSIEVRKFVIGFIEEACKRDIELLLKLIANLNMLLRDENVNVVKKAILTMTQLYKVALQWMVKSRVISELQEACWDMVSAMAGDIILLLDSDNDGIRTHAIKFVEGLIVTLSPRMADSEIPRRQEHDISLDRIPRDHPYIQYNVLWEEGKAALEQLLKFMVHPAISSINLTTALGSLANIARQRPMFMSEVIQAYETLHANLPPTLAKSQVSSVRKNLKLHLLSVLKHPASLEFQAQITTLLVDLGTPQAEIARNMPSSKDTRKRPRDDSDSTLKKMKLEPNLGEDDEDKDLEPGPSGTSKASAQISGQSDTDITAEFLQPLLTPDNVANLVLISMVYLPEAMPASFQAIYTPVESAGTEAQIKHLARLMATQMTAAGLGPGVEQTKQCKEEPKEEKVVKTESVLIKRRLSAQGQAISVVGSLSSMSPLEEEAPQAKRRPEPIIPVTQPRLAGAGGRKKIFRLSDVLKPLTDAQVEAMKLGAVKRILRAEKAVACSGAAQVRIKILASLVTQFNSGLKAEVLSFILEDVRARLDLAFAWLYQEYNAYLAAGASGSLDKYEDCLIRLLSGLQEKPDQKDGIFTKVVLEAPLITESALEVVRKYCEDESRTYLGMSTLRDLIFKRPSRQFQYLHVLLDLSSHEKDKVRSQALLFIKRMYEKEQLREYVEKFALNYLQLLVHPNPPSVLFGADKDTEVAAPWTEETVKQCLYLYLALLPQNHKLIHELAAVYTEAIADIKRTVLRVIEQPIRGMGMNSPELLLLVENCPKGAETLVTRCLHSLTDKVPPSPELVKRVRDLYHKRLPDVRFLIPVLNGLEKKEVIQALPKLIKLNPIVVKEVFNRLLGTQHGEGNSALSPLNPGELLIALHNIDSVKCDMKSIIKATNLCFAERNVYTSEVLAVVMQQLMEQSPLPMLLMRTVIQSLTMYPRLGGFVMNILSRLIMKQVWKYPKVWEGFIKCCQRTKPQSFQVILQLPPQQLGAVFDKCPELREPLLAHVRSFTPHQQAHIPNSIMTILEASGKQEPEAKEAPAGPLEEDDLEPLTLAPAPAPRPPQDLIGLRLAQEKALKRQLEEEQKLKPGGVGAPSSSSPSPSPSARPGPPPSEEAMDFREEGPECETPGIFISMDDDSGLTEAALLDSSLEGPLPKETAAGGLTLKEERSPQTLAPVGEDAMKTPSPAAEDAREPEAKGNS

[2] = target: T3, cleavage and polyadenylation specificity factor (CPSF), recombinant seven-subunit complex with hFip1 isoform 4 (human, UniProt Q10570 1-1443; Q9C0J8 1-576; O95639-2 1-244; Q6UN15 1-28; Q6UN15 44-393; Q9UKF6 …, F393K); assay: as above; conditions: both partners purified
T3 construct: CPSF160, human; synthetic codon-optimised gene for the full-length protein; WDR33, human, residues 1-576 (unstructured region removed); CPSF30, human, isoform 2 (short isoform); synthetic gene for the isoform; hFip1, human; isoform 4 (UniProt Q6UN15-4) was built from residues 1-28 and 44-393 of the full-length protein; this piece is 1-28; second piece of isoform 4 (UniProt Q6UN15-4): residues …

RBBP6 Y228G = target: T4, RBBP6 Y228G (Homo sapiens, UniProt Q7Z6E9 1-335, Y228G); assay: EMSA; no CPSF; binding unaffected vs WT; EMSA: 100 nM RNA, 15 min on ice, 10% native PAGE at 4 C (binding buffer not stated); SEC: HEPES-NaOH pH 8.0, 50 mM NaCl, 0.5 mM TCEP; pull-down: 20 mM HEPES-NaOH pH 8.0, 50 mM NaCl, 0.5 mM TCEP, 2 mM Mg(OAc)2, 4 C; conditions: protein: recombinant; tags: C-terminal TEV-StrepII; label: 5'-FAM
T4 sequence: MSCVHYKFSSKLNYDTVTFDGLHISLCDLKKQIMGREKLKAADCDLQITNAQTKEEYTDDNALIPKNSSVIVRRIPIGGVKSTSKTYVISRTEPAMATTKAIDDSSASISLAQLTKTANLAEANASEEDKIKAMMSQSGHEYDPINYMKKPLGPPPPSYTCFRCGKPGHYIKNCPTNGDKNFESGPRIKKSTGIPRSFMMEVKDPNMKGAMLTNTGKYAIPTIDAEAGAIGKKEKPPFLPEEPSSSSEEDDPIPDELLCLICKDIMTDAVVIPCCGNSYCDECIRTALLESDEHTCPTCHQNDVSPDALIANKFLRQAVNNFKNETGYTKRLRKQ

RBBP6 P195G = target: T5, RBBP6 P195G (Homo sapiens, UniProt Q7Z6E9 1-335, P195G); assay: as above; conditions: protein: recombinant; tags: C-terminal TEV-StrepII; label: 5'-FAM
T5 sequence: T4 sequence with P195G, G228Y

RBBP6 D43K R74E = target: T6, RBBP6 D43K R74E (Homo sapiens, UniProt Q7Z6E9 1-335, D43K;R74E); assay: as above; conditions: protein: recombinant; tags: C-terminal TEV-StrepII; label: 5'-FAM
T6 sequence: T4 sequence with D43K, R74E, G228Y

RBBP6 1-335 = target: T7, RBBP6 1-335 (Homo sapiens, UniProt Q7Z6E9 1-335); assay: EMSA; no CPSF; 100 nM RNA; EMSA: 100 nM RNA, 15 min on ice, 10% native PAGE at 4 C (binding buffer not stated); SEC: HEPES-NaOH pH 8.0, 50 mM NaCl, 0.5 mM TCEP; pull-down: 20 mM HEPES-NaOH pH 8.0, 50 mM NaCl, 0.5 mM TCEP, 2 mM Mg(OAc)2, 4 C; conditions: protein: recombinant; tags: C-terminal TEV-StrepII; label: 5'-FAM
T7 sequence: T4 sequence with G228Y

[3] = target: CPSF (seven subunits);RBBP6 1-335 (Homo sapiens;Homo sapiens, UniProt Q10570;Q9C0J8;O95639;Q6UN15-4;Q9UKF6;Q9P2I0;Q92797;Q7Z6E9 …, internal_change|); assay: size exclusion chromatography; 2.5 uM CPSF, 7.5 uM RBBP6, 5 uM RNA; RBBP6 substoichiometric; EMSA: 100 nM RNA, 15 min on ice, 10% native PAGE at 4 C (binding buffer not stated); SEC: HEPES-NaOH pH 8.0, 50 mM NaCl, 0.5 mM TCEP; pull-down: 20 mM HEPES-NaOH pH 8.0, 50 mM NaCl, 0.5 mM TCEP, 2 mM Mg(OAc)2, 4 C; conditions: protein: recombinant;recombinant; tags: StrepII on WDR33 and symplekin;C-terminal TEV-StrepII; copies: 1;1;1;1;1;1;1;1; label: 5'-FAM

CN1CCN(CCOc2c(Cl)cc(C(=O)N[C@@H](Cc3ccccc3)C(=O)O)c(O)c2Cl)CC1 [JTE-607 acid]
IC50 (CPSF73): ~350 nM

B1: SSU72 (enzyme, human, UniProt Q9NP77 1-194, looked up)
chain: MPSSPLRVAVVCSSNQNRSMEAHNILSKRGFSVRSFGTGTHVKLPGPAPDKPNVYDFKTTYDQMYNDLLRKDKELYTQNGILHMLDRNKRIKPRPERFQNCKDLFDLILTCEERVYDQVVEDLNSREQETCQPVHVVNVDIQDNHEEATLGAFLICELCQCIQHTEDMENEIDELLQEFEEKSGRTFLHTVCFY
notes: SSU72, human; the coding region amplified from the synthetic full-length gene; also called human SSU72; phosphatase SSU72; source: E. coli BL21(DE3) Star, purified (HisTrap, 3C cleavage, Superdex 75); not shown: His6, N-terminal, cleaved
binding result [1]: binds
binding result [2]: binds

B2: 5'-FAM-L3 41-nt RNA (ssRNA)
RNA: AUGAUCUAGGAGACACAAUAAAGGCAAUGUUUUUAUUUGUA
binding result (RBBP6 Y228G): binds
binding result (RBBP6 P195G): binds
binding result (RBBP6 D43K R74E): binds
binding result (RBBP6 1-335): binds
binding result [3]: binds
